How the values were obtained:
[1] = molecular target: SARS-CoV-2 spike ectodomain, prefusion-stabilised trimer (刺突 S2P) (SARS-CoV-2)
[2] = molecular target: SARS-CoV-2 spike ectodomain, prefusion-stabilised trimer (刺突 S2P) (SARS-CoV-2); assay: binding kinetics (SPR), Fig. 6A
[3] = molecular target: SARS-CoV-2 spike ectodomain, prefusion-stabilised trimer (刺突 S2P) (SARS-CoV-2); assay: SPR, captured spike S2P
[4] = molecular target: SARS-CoV-2 spike ectodomain, prefusion-stabilised trimer (刺突 S2P) (SARS-CoV-2); remark: listed apart in the source
[5] = molecular target: SARS-CoV-2 spike ectodomain, prefusion-stabilised trimer (刺突 S2P) (SARS-CoV-2); assay: SPR, captured spike S2P, biphasic dissociation, slow phase kd2
[6] = molecular target: SARS-CoV-2 spike ectodomain, prefusion-stabilised trimer (刺突 S2P) (SARS-CoV-2); assay: SPR, captured spike S2P, biphasic dissociation, fast phase kd1

B1: Nb6 (VHH)
VHH: QVQLVESGGGLVQAGGSLRLSCAASGIIFGRNAMGWYRQAPGKERELVAGITRRGSITYYADSVKGRFTISRDNAKNTVYLQMNSLKPEDTAVYYCAADPASPAPGDYWGQGTQVTVSS
[1]
  EC50: 359 nM
[2]
  Kd: 210 nM
[3]
  Kd: 210 nM
  koff: 0.056 s⁻¹
[4]
  IC50: 370 nM

B2: Nb6-bi (bivalent Nb6 with a 15 amino acid linker) (VHH)
chain: QVQLVESGGGLVQAGGSLRLSCAASGIIFGRNAMGWYRQAPGKERELVAGITRRGSITYYADSVKGRFTISRDNAKNTVYLQMNSLKPEDTAVYYCAADPASPAPGDYWGQGTQVTVSSGGGGSGGGGSGGGGSQVQLVESGGGLVQAGGSLRLSCAASGIIFGRNAMGWYRQAPGKERELVAGITRRGSITYYADSVKGRFTISRDNAKNTVYLQMNSLKPEDTAVYYCAADPASPAPGDYWGQGTQVTVSS
[5]
  koff: 0.00031 s⁻¹
[3]
  fold gain in KD against monovalent Nb6: 750 fold
[6]
  koff: 0.027 s⁻¹

From patent publication CN116472284A
